Assay results: patent publication US20150239968A1

What was measured:
[1] = molecular target: GDF-15 produced by the prostate cancer cell line LnCap (UniProt Q99988); assay: cell-based or functional assay
[2] = molecular target: recombinant mature human GDF-15 protein (as expressed in Baculovirus-transfected insect cells) (human) (UniProt Q99988); assay: SPR (Biorad ProteOn XPR36, GLC chip), GDF-15 from insect cells immobilized, antibody as analyte, 1:1 Langmuir, 25° C.
[3] = molecular target: recombinant mature human GDF-15 protein (as expressed in Baculovirus-transfected insect cells) (human) (UniProt Q99988); assay: SPR (Biorad ProteOn XPR36, GLC chip), KD=koff/kon, GDF-15 from insect cells immobilized
[4] = molecular target: recombinant mature human GDF-15 protein derived from expression in E. coli (human) (UniProt Q99988); assay: SPR (Biorad ProteOn XPR36, GLC chip), GDF-15 from E. coli immobilized, antibody as analyte

proliferation of LnCap cells (Alamar Blue assay) after 72 hrs [1]: 30%
koff [2]: 0.00043 s⁻¹
kon [2]: 540000 M⁻¹ s⁻¹
Kd [3]: 0.79 nM
deviation of rate constants against GDF-15 derived from insect cells [4]: 45%
fold difference of affinity values against GDF-15 derived from insect cells [4]: < 2 fold
Substance: monoclonal anti-human GDF-15 mAb-B1-23 (antibody)
